Source: the supplement of paper PMC10567573

B1: ETS1 (parent)
chain: YVRDRADLNKDKPVIPAAALAGYT
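Also: lentivirally expressed fusions sorted by FACS into six bins by GFP to DsRed ratio, PSI derived from sequencing read proportions per bin multiplied by bin number.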

Variants of: B1
Test: protein stability index of a GFP-peptide fusion (GPS, HEK-293T) (PSI 1-6); higher = more stable
Conditions: c terminus: a fixed tail appended
Work on YVRDRADLNKDDPVIPAAALAGYT [K12D] yielded a protein stability index of 2.04. In the case of YVRDRADLNKDAPVIPAAALAGYT [K12A], the protein stability index is reported as 2.39. In the case of YVRDRADLNKDKPVIPAAALAGYL [T24L], the protein stability index is reported as 2.7. YVRDRADLNKDKPVIPAAALAGYM [T24M] showed a protein stability index of 2.67. Variant YVRDRADLNKDKPVIPAAALAGYI [T24I] has a protein stability index of 2.37. Work on YVRDRADLNKDKPVIHAAALAGYT [P16H] yielded a protein stability index of 2.1. For YVRDRADLNKDKPVIDAAALAGYT [P16D], the protein stability index was 2.54. YVRDRADLNKDKPVIEAAALAGYT [P16E] showed a protein stability index of 2.05. Variant YVRDRADLNKDKWVIPAAALAGYT [P13W] has a protein stability index of 2.13. With YVRDRADLHKDKPVIPAAALAGYT [N9H] the protein stability index was 3.44. For YVRDRADLKKDKPVIPAAALAGYT [N9K], the protein stability index was 2.31. In the case of YVRRRADLNKDKPVIPAAALAGYT [D4R], the protein stability index is reported as 2.1. YVRHRADLNKDKPVIPAAALAGYT [D4H] showed a protein stability index of 1.94. For YVRDRADLNKDKPVIPAAALAGST [Y23S], the protein stability index was 1.52. Variant YVRDRADLNKDKPVIPAAALAGQT [Y23Q] has a protein stability index of 1.86. Variant YVRDRADLNKDKPVIPAAALAGDT [Y23D] has a protein stability index of 1.91. YQRDRADLNKDKPVIPAAALAGYT [V2Q] showed a protein stability index of 2.93. With YMRDRADLNKDKPVIPAAALAGYT [V2M] the protein stability index was 3.81. Work on YSRDRADLNKDKPVIPAAALAGYT [V2S] yielded a protein stability index of 3.76. YYRDRADLNKDKPVIPAAALAGYT [V2Y] gave a protein stability index of 3.5. YVRDRADLNNDKPVIPAAALAGYT [K10N] gave a protein stability index of 2.08. For YVRDRADLNGDKPVIPAAALAGYT [K10G], the protein stability index was 2.97. YVRDRADLNPDKPVIPAAALAGYT [K10P] showed a protein stability index of 2.6. Work on YVRDRADLNFDKPVIPAAALAGYT [K10F] yielded a protein stability index of 3.25. YVRDRADLNKDKPVIPACALAGYT [A18C] showed a protein stability index of 2.33. YVRDRADLNKDKPVIPASALAGYT [A18S] showed a protein stability index of 2.73. Work on YVRDRAWLNKDKPVIPAAALAGYT [D7W] yielded a protein stability index of 2.52. Work on YVRDRAQLNKDKPVIPAAALAGYT [D7Q] yielded a protein stability index of 2.77. With YVRDRAVLNKDKPVIPAAALAGYT [D7V] the protein stability index was 3.53. YVRDRAHLNKDKPVIPAAALAGYT [D7H] showed a protein stability index of 2.91. For YVRDRAMLNKDKPVIPAAALAGYT [D7M], the protein stability index was 2.6. For YVWDRADLNKDKPVIPAAALAGYT [R3W], the protein stability index was 1.68. In the case of YVEDRADLNKDKPVIPAAALAGYT [R3E], the protein stability index is reported as 2.76. YVDDRADLNKDKPVIPAAALAGYT [R3D] showed a protein stability index of 2.88. YVRDRADLNKCKPVIPAAALAGYT [D11C] showed a protein stability index of 2.46. In the case of YVRDRADLNKLKPVIPAAALAGYT [D11L], the protein stability index is reported as 4.14. YVRDRADLNKRKPVIPAAALAGYT [D11R] showed a protein stability index of 2.17. With YVRDRADLNKGKPVIPAAALAGYT [D11G] the protein stability index was 3.03. Variant YVRDRADLNKDKPWIPAAALAGYT [V14W] has a protein stability index of 2.4. Work on YVRDRADLNKDKPYIPAAALAGYT [V14Y] yielded a protein stability index of 1.8. Variant YVRDRADLNKDKPQIPAAALAGYT [V14Q] has a protein stability index of 1.4. For YVRDRADLNKDKPGIPAAALAGYT [V14G], the protein stability index was 2.18. YVRDRADLNKDKPNIPAAALAGYT [V14N] showed a protein stability index of 2.34. YVRDRADLNKDKPIIPAAALAGYT [V14I] gave a protein stability index of 1.63. Work on YVRDRADLNKDKPPIPAAALAGYT [V14P] yielded a protein stability index of 1.92. Work on YVRDRADLNKDKPVLPAAALAGYT [I15L] yielded a protein stability index of 2.16. YVRDRADLNKDKPVQPAAALAGYT [I15Q] gave a protein stability index of 2.57. With YVRDRADLNKDKPVTPAAALAGYT [I15T] the protein stability index was 1.91. With YVRDRADLNKDKPVAPAAALAGYT [I15A] the protein stability index was 2.8. YVRDRADLNKDKPVKPAAALAGYT [I15K] gave a protein stability index of 2.26. YVRDRADLNKDKPVSPAAALAGYT [I15S] gave a protein stability index of 2.36. For YVRDRADLNKDKPVDPAAALAGYT [I15D], the protein stability index was 1.93. In the case of YVRDRIDLNKDKPVIPAAALAGYT [A6I], the protein stability index is reported as 2.76. For YVRDREDLNKDKPVIPAAALAGYT [A6E], the protein stability index was 2.27. With YVRDRCDLNKDKPVIPAAALAGYT [A6C] the protein stability index was 2. In the case of YVRDRRDLNKDKPVIPAAALAGYT [A6R], the protein stability index is reported as 1.72. Variant YVRDRGDLNKDKPVIPAAALAGYT [A6G] has a protein stability index of 2.49. For YVRDKADLNKDKPVIPAAALAGYT [R5K], the protein stability index was 2.11. Variant YVRDYADLNKDKPVIPAAALAGYT [R5Y] has a protein stability index of 2.7. With YVRDIADLNKDKPVIPAAALAGYT [R5I] the protein stability index was 3.08. Work on YVRDQADLNKDKPVIPAAALAGYT [R5Q] yielded a protein stability index of 1.57. For YVRDHADLNKDKPVIPAAALAGYT [R5H], the protein stability index was 1.95. YVRDPADLNKDKPVIPAAALAGYT [R5P] gave a protein stability index of 1.72. For YVRDRADANKDKPVIPAAALAGYT [L8A], the protein stability index was 2.17. YVRDRADDNKDKPVIPAAALAGYT [L8D] showed a protein stability index of 1.67. With YVRDRADGNKDKPVIPAAALAGYT [L8G] the protein stability index was 2.12. For YVRDRADQNKDKPVIPAAALAGYT [L8Q], the protein stability index was 1.77. For YVRDRADENKDKPVIPAAALAGYT [L8E], the protein stability index was 2.11. Work on YVRDRADLNKDKPVIPAAAAAGYT [L20A] yielded a protein stability index of 2.06. With YVRDRADLNKDKPVIPAAAQAGYT [L20Q] the protein stability index was 2.79. With YVRDRADLNKDKPVIPAAATAGYT [L20T] the protein stability index was 2.12. Work on HVRDRADLNKDKPVIPAAALAGYT [Y1H] yielded a protein stability index of 3.7. For PVRDRADLNKDKPVIPAAALAGYT [Y1P], the protein stability index was 3.92. In the case of SVRDRADLNKDKPVIPAAALAGYT [Y1S], the protein stability index is reported as 4.24. Variant IVRDRADLNKDKPVIPAAALAGYT [Y1I] has a protein stability index of 3.73. For KVRDRADLNKDKPVIPAAALAGYT [Y1K], the protein stability index was 4.18. QVRDRADLNKDKPVIPAAALAGYT [Y1Q] gave a protein stability index of 4.41. With LVRDRADLNKDKPVIPAAALAGYT [Y1L] the protein stability index was 3.79. YVRDRADLNKDKPVIPAAALLGYT [A21L] gave a protein stability index of 3.03. For YVRDRADLNKDKPVIPAAALHGYT [A21H], the protein stability index was 2.06. Work on YVRDRADLNKDKPVIPAAALEGYT [A21E] yielded a protein stability index of 2.1. YVRDRADLNKDKPVIPAAALWGYT [A21W] showed a protein stability index of 2.75. In the case of YVRDRADLNKDKPVIPAAALSGYT [A21S], the protein stability index is reported as 2.53. YVRDRADLNKDKPVIPAAHLAGYT [A19H] gave a protein stability index of 1.75. For YVRDRADLNKDKPVIPAAVLAGYT [A19V], the protein stability index was 3.93. For YVRDRADLNKDKPVIPAATLAGYT [A19T], the protein stability index was 2.17. For YVRDRADLNKDKPVIPAAKLAGYT [A19K], the protein stability index was 2.9. YVRDRADLNKDKPVIPAAALAMYT [G22M] showed a protein stability index of 1.63. For YVRDRADLNKDKPVIPAAALACYT [G22C], the protein stability index was 2.39. For YVRDRADLNKDKPVIPAAALAAYT [G22A], the protein stability index was 2.8. For YVRDRADLNKDKPVIPPAALAGYT [A17P], the protein stability index was 1.79. For YVRDRADLNKDKPVIPGAALAGYT [A17G], the protein stability index was 3.1. With YVRDRADLNKDKPVIPEAALAGYT [A17E] the protein stability index was 2.19. YVRDRADLNKDKPVIPTAALAGYT [A17T] gave a protein stability index of 2.11.
